The target of this test is Mature human mitochondrial heat shock protein family D member 1 (HSPD1) (human), P10809. As to the kind of experiment: cryo-EM structure; single-particle cryoEM of reconstituted oligomeric HSPD1; grids by TED (6 and 50 ms), chameleon (54 ms) and Vitrobot (6 s blot); 50 mM Tris, 300 mM NaCl, 10 mM MgCl2 pH 8; consensus reconstructions in C1 and C7 symmetry. As to conditions: remark: other sources report otherwise.

Broadly, the stoichiometry N is a count of units in the complex or per binding partner.

B1: Mature human mitochondrial heat shock protein family D member 1 (HSPD1), P10809 27-573 (natural protein)
chain: AKDVKFGADARALMLQGVDLLADAVAVTMGPKGRTVIIEQSWGSPKVTKDGVTVAKSIDLKDKYKNIGAKLVQDVANNTNEEAGDGTTTATVLARSIAKEGFEKISKGANPVEIRRGVMLAVDAVIAELKKQSKPVTTPEEIAQVATISANGDKEIGNIISDAMKKVGRKGVITVKDGKTLNDELEIIEGMKFDRGYISPYFINTSKGQKCEFQDAYVLLSEKKISSIQSIVPALEIANAHRKPLVIIAEDVDGEALSTLVLNRLKVGLQVVAVKAPGFGDNRKNQLKDMAIATGGAVFGEEGLTLNLEDVQPHDLGKVGEVIVTKDDAMLLKGKGDKAQIEKRIQEIIEQLDVTTSEYEKEKLNERLAKLSDGVAVLKVGGTSDVEVNEKKDRVTDALNATRAAVEEGIVLGGGCALLRCIPALDSLTPANEDQKIGIEIIKRTLKIPAMTIAKNAGVEGSLIVEKIMQSSSEVGYDAMAGDFVNMVEKGIIDPTKVVRTALLDAAGVASLLTTAEVVVTEIPKEEKDPGMGAMGGMGGGMGGGMF
Molecule B1 gave a stoichiometry N of 7.
